From patent publication US20070185028A1, “Compositions and methods for treatment of protein misfolding and protein aggregation diseases” (priority 2004, published 2007) come the findings set out here.

This assay has as its target T1, CS (Sus scrofa, UniProt P00889).
T1 sequence (P00889 28-464): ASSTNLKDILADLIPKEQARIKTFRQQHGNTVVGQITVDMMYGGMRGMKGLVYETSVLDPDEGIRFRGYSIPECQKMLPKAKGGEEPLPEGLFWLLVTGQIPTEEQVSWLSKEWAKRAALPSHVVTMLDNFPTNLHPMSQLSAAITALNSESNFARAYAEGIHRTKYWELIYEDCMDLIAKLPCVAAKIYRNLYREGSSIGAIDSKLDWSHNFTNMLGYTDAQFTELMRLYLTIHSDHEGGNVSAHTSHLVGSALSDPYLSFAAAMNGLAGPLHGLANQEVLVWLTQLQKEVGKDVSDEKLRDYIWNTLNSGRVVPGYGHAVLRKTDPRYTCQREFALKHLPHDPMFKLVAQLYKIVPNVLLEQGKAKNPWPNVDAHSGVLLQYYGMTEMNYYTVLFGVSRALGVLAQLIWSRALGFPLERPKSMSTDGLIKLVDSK
As to the kind of experiment: Chaperone assay, thermal aggregation of CS at 50° C. Format: biochemical. As to conditions: 10:1 molar ratio of peptide:CS, sixty minutes, 340 nm. The method, then:
The chaperone activity of the peptides was measured as their ability to protect against the thermal aggregation of three chaperone target proteins βH crystallin, ADH and CS in chaperone assays performed at 50° C. (FIG. 19). A non-interactive αB crystallin sequence 111HGKHEERQDE120 was used as the negative control in the chaperone assays (FIG. 19). Based on near and far UVCD, the three target proteins unfolded in the order: CS>>>ADH>>βH crystallin when they were heated at 50° C. for sixty minutes (FIGS. 15 and 16). The thermal aggregation of βH crystallin, ADH and CS was measured as light scattering at λ=340 nm in the presence and absence of each peptide. The chaperone activity of each peptide was calculated as percent protection in which the aggregation of each target protein in the absence of any peptides was set at 0% protection (FIG. 19). The interactive peptides […] and 131LTITSSLSDGV141 were effective inhibitors of aggregation of all three chaperone target proteins.
A (top left): thermal aggregation of chaperone target proteins βH crystallin, ADH and CS in the absence of peptides was measured as light scattering at λ=340 nm. […] The chaperone activity of each peptide was calculated as percent protection in which the aggregation of each target protein in the absence of any peptides was set at 0% protection. […]

Take HGKHEERQDE: the “percent protection against thermal aggregation of CS” value is “partial protection”.
